According to FireProtDB (doi:10.1111/j.1432-1033.1995.tb20713.x):

Conditions: Saccharomyces cerevisiae (strain ATCC 204508 / S288c), Fluorescence, reversible: yes, whole UniProt chain shown
[1] = pH 4.6, Thermal, Acetic acid-NaOH 30 mM
[2] = pH 7.5, 5.2 °C, GdnHCl, MOPS-NaOH 30 mM
[3] = pH 7.5, 10.2 °C, GdnHCl, MOPS-NaOH 30 mM
[4] = pH 7.5, 15.2 °C, GdnHCl, MOPS-NaOH 30 mM
[5] = pH 7.5, Thermal, MOPS-NaOH 30 mM

B1: Adenylate kinase wild type, P07170 (protein)
chain: MSSSESIRMVLIGPPGAGKGTQAPNLQERFHAAHLATGDMLRSQIAKGTQLGLEAKKIMDQGGLVSDDIMVNMIKDELTNNPACKNGFILDGFPRTIPQAEKLDQMLKEQGTPLEKAIELKVDDELLVARITGRLIHPASGRSYHKIFNPPKEDMKDDVTGEALVQRSDDNADALKKRLAAYHAQTEPIVDFYKKTGIWAGVDASQPPATVWADILNKLGKD
unfolding free energy (pH 4.6, 25 °C, Thermal, Acetic acid-NaOH 30 mM): 2.15 kcal/mol
Tm [1]: 48.6 °C
unfolding enthalpy (van 't Hoff) [1]: 57.4 kcal/mol
denaturant m value [2]: 5.28 kcal/mol/M
denaturant midpoint (higher = more stable) [2]: 0.76 M
unfolding free energy [2]: 3.97 kcal/mol
denaturant m value [3]: 6.98 kcal/mol/M
denaturant midpoint (higher = more stable) [3]: 0.7 M
unfolding free energy [3]: 4.9 kcal/mol
denaturant m value [4]: 7.29 kcal/mol/M
denaturant midpoint (higher = more stable) [4]: 0.75 M
unfolding free energy [4]: 5.47 kcal/mol
unfolding free energy (pH 7.5, 25 °C, Thermal, MOPS-NaOH 30 mM): 3.82 kcal/mol
Tm [5]: 47.7 °C
unfolding enthalpy (van 't Hoff) [5]: 81.3 kcal/mol
